Measured values published in US20070190603A1 (MIT, published 2007).

Molecular target: the molecule itself
Assay: self-assembly into a macroscopic membrane in DMEM; phase-contrast microscopy and Congo Red staining
Experimental: The peptides were initially dissolved in water (5 mg/ml) or in 23% acetonitrile (10 mg/ml). A volume of 5-10 microliters of the dissolved peptides were applied to the DMEM medium, PBS or water. The formation of the membrane was first observed under a phase-contrast microscope and then, by the naked eye after staining with Congo Red.

Protein	binding result
Ac-AEAKAEAEAKAK-NH2 [EAK12 peptide, Ac-HN-AEAKAEAEAKAK-CONH2]	binds
Ac-AEAEAKAKAEAEAKAK-NH2 (Self-assembling amphiphilic peptide) [EAK16 peptide, Ac-HN-AEAEAKAKAEAEAKAK-CONH2]	binds
